The results in this text go back to paper PMC5884809, “ETV2-TET1/TET2 Complexes Induce Endothelial Cell-Specific Robo4 Expression via Promoter Demethylation”.

The target of data set [1] is T1, ETV2 (UniProt O00321 1-342).
T1 sequence: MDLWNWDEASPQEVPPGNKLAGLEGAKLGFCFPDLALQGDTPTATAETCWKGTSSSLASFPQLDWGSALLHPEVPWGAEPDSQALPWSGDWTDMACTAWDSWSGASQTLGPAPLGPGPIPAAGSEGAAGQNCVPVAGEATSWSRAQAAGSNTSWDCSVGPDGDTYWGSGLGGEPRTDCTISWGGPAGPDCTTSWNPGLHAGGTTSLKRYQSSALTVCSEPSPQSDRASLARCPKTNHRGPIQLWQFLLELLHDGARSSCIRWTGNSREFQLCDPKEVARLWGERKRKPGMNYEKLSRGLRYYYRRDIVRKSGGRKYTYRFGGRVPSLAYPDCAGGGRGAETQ
Put plainly: competition; 50-fold excess vs ETS(1) probe, EMSA; EMSA: 3 µl TNT ETV2, 30 min at 4 °C; 4% native polyacrylamide gel, 0.5x TBE, 120 V 2 h; binding buffer, salt and pH not stated. The note with it: protein: ivt; blunt. (In general: Mobility shift assays separate free from complexed probe on a gel.)

In data set [2] the target is T1, ETV2. Put plainly: competition; 50-fold excess vs ETS(3) probe, EMSA; EMSA: 3 µl TNT ETV2, 30 min at 4 °C; 4% native polyacrylamide gel, 0.5x TBE, 120 V 2 h; binding buffer, salt and pH not stated. The note with it: protein: ivt; blunt.
In data set [3] the target is T1, ETV2. Put plainly: EMSA; strongest shift of the four; abolished by 50-fold WT competitor; EMSA: 3 µl TNT ETV2, 30 min at 4 °C; 4% native polyacrylamide gel, 0.5x TBE, 120 V 2 h; binding buffer, salt and pH not stated. The note with it: protein: ivt; label: 32P (probe); blunt.
Data set [4] addresses T1, ETV2. Put plainly: competition; 50-fold excess vs ETS(4) probe, EMSA; EMSA: 3 µl TNT ETV2, 30 min at 4 °C; 4% native polyacrylamide gel, 0.5x TBE, 120 V 2 h; binding buffer, salt and pH not stated. The note with it: protein: ivt; blunt.
In data set [5] the target is T1, ETV2. The data set is described as follows: competition; 50-fold excess vs ETS(2) probe, EMSA; EMSA: 3 µl TNT ETV2, 30 min at 4 °C; 4% native polyacrylamide gel, 0.5x TBE, 120 V 2 h; binding buffer, salt and pH not stated. The following applies: protein: ivt; blunt ends, 2 internal mismatches as printed.
The target of data set [6] is T1, ETV2. Put plainly: EMSA; third strongest shift; abolished by 50-fold WT competitor; EMSA: 3 µl TNT ETV2, 30 min at 4 °C; 4% native polyacrylamide gel, 0.5x TBE, 120 V 2 h; binding buffer, salt and pH not stated. The following applies: protein: ivt; label: 32P (probe); blunt.
For data set [7], the target named is T1, ETV2. Put plainly: EMSA; least pronounced shift of the four; abolished by 50-fold WT competitor; EMSA: 3 µl TNT ETV2, 30 min at 4 °C; 4% native polyacrylamide gel, 0.5x TBE, 120 V 2 h; binding buffer, salt and pH not stated. The note with it: protein: ivt; label: 32P (probe); blunt.
The target of data set [8] is T1, ETV2. The data set is described as follows: EMSA; second strongest shift; abolished by 50-fold WT competitor; EMSA: 3 µl TNT ETV2, 30 min at 4 °C; 4% native polyacrylamide gel, 0.5x TBE, 120 V 2 h; binding buffer, salt and pH not stated. The following applies: protein: ivt; label: 32P (probe); blunt.

B1: ETS(1)mut (dsDNA)
DNA 1: GGGCCAGGCACCTAGCATCGG
DNA 2: CCGATGCTAGGTGCCTGGCCC
Consider B1, for which, in data set [1], the binding result is given as “no binding”.

B2: ETS(3)mut (dsDNA)
DNA 1: CAAAGCCGCTAGGCTCCTGGG
DNA 2: CCCAGGAGCCTAGCGGCTTTG
For B2, the binding result in data set [2] is reported as “no binding”.

B3: ETS(1) (dsDNA)
DNA 1: GGGCCAGGCAGGAAGCATCGG
DNA 2: CCGATGCTTCCTGCCTGGCCC
For B3, the binding result in data set [3] is “binds”.

B4: ETS(4)mut (dsDNA)
DNA 1: CCCCTCCTAGGCTCTTCACTG
DNA 2: CAGTGAAGAGCCTAGGAGGGG
As to B4, in data set [4], the binding result is on record as “no binding”.

B5: ETS(2)mut (dsDNA)
DNA 1: CATCGGTTAGGTTCAAGCCGC
DNA 2: GCGGCTTTGACCTAACCGATG
For the molecule B5, in data set [5], the binding result was “no binding”.

B6: ETS(3) (dsDNA)
DNA 1: CAAAGCCGCTTCCCTCCTGGG
DNA 2: CCCAGGAGGGAAGCGGCTTTG
B6: in data set [6], the binding result was “binds”.

B7: ETS(4) (dsDNA)
DNA 1: CCCCTCCTTCCCTCTTCACTG
DNA 2: CAGTGAAGAGGGAAGGAGGGG
With B7, the binding result in data set [7] is “binds”.

B8: ETS(2) (dsDNA)
DNA 1: CATCGGTTTCCTCAAAGCCGC
DNA 2: GCGGCTTTGAGGAAACCGATG
For B8, in data set [8], the binding result is given as “binds”.
